Source: PMC6949303 (Nature Communications, 2020)

B1: Ligelizumab IgG (antibody, V domains shown)
VH: QVQLVQSGAEVMKPGSSVKVSCKASGYTFSWYWLEWVRQAPGHGLEWMGEIDPGTFTTNYNEKFKARVTFTADTSTSTAYMELSSLRSEDTAVYYCARFSHFSGSNYDYFDYWGQGTLVTVSS
VL: EIVMTQSPATLSVSPGERATLSCRASQSIGTNIHWYQQKPGQAPRLLIYYASESISGIPARFSGSGSGTEFTLTISSLQSEDFAVYYCQQSWSWPTTFGGGTKVEIK
notes: constant region of the IgG heavy chain; constant region of the light chain; also called QGE031; source: produced and provided by Novartis Pharma AG
B2: Ligelizumab IgG (antibody, V domains shown)
VH: B1 VH
VL: B1 VL
notes: heavy chain constant region of the IgG; light chain constant region; also called QGE031; source: produced and provided by Novartis Pharma AG
B3: ligelizumab single chain fragment variable (scFv) (scFv)
scFv: QVQLVQSGAEVMKPGSSVKVSCKASGYTFSWYWLEWVRQAPGHGLEWMGEIDPGTFTTNYNEKFKARVTFTADTSTSTAYMELSSLRSEDTAVYYCARFSHFSGSNYDYFDYWGQGTLVTVSSGTGGSGGGGSGGGGSGGGASEIVMTQSPATLSVSPGERATLSCRASQSIGTNIHWYQQKPGQAPRLLIYYASESISGIPARFSGSGSGTEFTLTISSLQSEDFAVYYCQQSWSWPTTFGGGTKVEIKENLYFQ
notes: ligelizumab VH domain; GTG(GSGGG)3AS linker; ligelizumab VL domain; also called ligelizumab scFv; ligelizumab single chain Fv; source: HEK 293-6E, co-transfected with IgE-Fc3-4, complex purified from supernatant (Ni-NTA, Superdex 200); not shown: His8, C-terminal, cleaved
B4: wild-type IgE-Fc3-4 (co-expressed with the ligelizumab scFv for crystallisation) (domain or fragment, human)
chain: CADSNPRGVSAYLSRPSPFDLFIRKSPTITCLVVDLAPSKGTVNLTWSRASGKPVNHSTRKEEKQRNGTLTVTSTLPVGTRDWIEGETYQCRVTHPHLPRALMRSTTKTSGPRAAPEVYAFATPEWPGSRDKRTLACLIQNFMPEDISVQWLHNEVQLPDARHSTTQPRKTKGSGFFVFSRLEVTRAEWEQKDEFICRAVHEAASPSQTVQRAVSVNP
notes: human IgE heavy chain constant region, Cε3 and Cε4 domains, wild type (C328); also called C328 IgE-Fc3-4 fragment; wt C328 IgE-Fc3-4; source: HEK 293-6E, co-transfected with ligelizumab scFv, complex purified from supernatant (Ni-NTA, Superdex 200)
B5: Recombinant extracellular part of human FcεRIα (receptor, UniProt P12319 26-205, looked up)
chain: VPQKPKVSLNPPWNRIFKGENVTLTCNGNNFFEVSSTKWFHNGSLSEETNSSLNIVNAKFEDSGEYKCQHQQVNESEPVYLEVFSDWLLLQASAEVVMEGQPLFLRCHGWRNWDVYKVIYYKDGEALKYWYENHNISITNATVEDSGTYYCTGKVWQLDYESEPLNITVIKAPREKYWLQ
notes: also called recombinant human FcεRIα
B6: mutated C335 IgE-Fc3-4 (domain or fragment)
chain: AADSNPRCVSAYLSRPSPFDLFIRKSPTITCLVVDLAPSKGTVNLTWSRASGKPVNHSTRKEEKQRNGTLTVTSTLPVGTRDWIEGETYQCRVTHPHLPRALMRSTTKTSGPRAAPEVYAFATPEWPGSRDKRTLACLIQNFMPEDISVQWLHNEVQLPDARHSTTQPRKTKGSGFFVFSRLEVTRAEWEQKDEFICRAVHEAASPSQTVQRAVSVNPGK
modifications: Disulfide-linked homodimer via Cys335 (entity position 11), closed Cε3 conformation; N-glycosylated at Asn394. The change is not given; it is taken from 5HYS entity 3 (C328A/G335C). …
B7: mutated C335 IgE-Fc3-4 (domain or fragment)
chain: B6 chain

What was measured:
wild-type C328 IgE-Fc3-4 [1] = biological target: T1, wild-type C328 IgE-Fc3-4 (Homo sapiens, UniProt P01854); experiment: SPR; 100 RU ligelizumab or omalizumab IgG immobilised by amine coupling on CM5 (ligelizumab pH 5.0, omalizumab pH 4.5); 0.3-5 nM C328 or C335 IgE-Fc3-4 injected 120 s, dissociation 180 s; HBS-EP+, 10 ul/min, Biacore X100; 1:1 langmuir fit; conditions: both partners purified
T1 construct: human IgE heavy chain constant region, Fc fragment of the Cε3 and Cε4 domains, wild-type variant named C328; PDB 6UQR holds wt C328 IgE-Fc3-4 made in HEK 293-6E for the crystal; also called wt C328 IgE-Fc3-4

wild-type C328 IgE-Fc3-4 [2] = biological target: T2, wild-type C328 IgE-Fc3-4 (human, UniProt P01854); experiment: SPR; Biacore X100, CM5 chip, HBS-EP+; 100 RU ligelizumab or omalizumab IgG immobilised; 0.3–5 nM C328 or C335 IgE-Fc3-4 injected 120 s, dissociation 180 s; conditions: both partners purified
T2 construct: human IgE heavy chain constant region, Cε3 and Cε4 domains, variant named C328; also called wt C328 IgE-Fc3-4

[3] = biological target: B4; experiment: crystal structure; scFv:IgE-Fc3-4 complex, hanging drop, 0.2 M Na thiocyanate pH 6.9, 20% PEG3350, 10 mM spermidine, 14 °C; 3.65 Å; conditions: both partners purified
[4] = biological target: the molecule itself; experiment: as above
wild-type C328 IgE-Fc3-4 [5] = biological target: T3, wild-type C328 IgE-Fc3-4 (human, UniProt P01854 209-426); experiment: SPR; 1000 RU FcεRIα immobilised, 20 nM IgE-Fc3-4 captured; 3.13–100 nM ligelizumab or omalizumab injected 120 s, dissociation 180 s; conditions: both partners purified
T3 construct: human IgE heavy chain constant region, Cε3 and Cε4 domains, variant named C328; also called wt C328 IgE-Fc3-4

Ligelizumab IgG = biological target: T4, Ligelizumab IgG; experiment: SPR; 100 RU ligelizumab or omalizumab IgG immobilised by amine coupling on CM5 (ligelizumab pH 5.0, omalizumab pH 4.5); 0.3-5 nM C328 or C335 IgE-Fc3-4 injected 120 s, dissociation 180 s; HBS-EP+, 10 ul/min, Biacore X100; 1:1 langmuir fit; conditions: both partners purified
T4 construct: constant region of the IgG heavy chain; constant region of the light chain; also called QGE031; source: produced and provided by Novartis Pharma AG

Omalizumab IgG = biological target: T5, Omalizumab IgG; experiment: as above; conditions: both partners purified
T5 construct: also called Xolair; source: produced and provided by Novartis Pharma AG

B1
Kd (wild-type C328 IgE-Fc3-4 [1]): 0.011 nM
koff (wild-type C328 IgE-Fc3-4 [1]): 0.00014 s⁻¹
kon (wild-type C328 IgE-Fc3-4 [1]): 1.3e+07 M⁻¹ s⁻¹

B2
fold higher affinity than C335 IgE-Fc3-4 (wild-type C328 IgE-Fc3-4 [2]): ~60 fold

B3
binding result [3]: binds

B4
stoichiometry N [4]: 2

B5
binding result (wild-type C328 IgE-Fc3-4 [5]): binds

B6
Kd (Ligelizumab IgG): 0.64 nM
koff (Ligelizumab IgG): 0.0065 s⁻¹
kon (Ligelizumab IgG): 1.1e+07 M⁻¹ s⁻¹

B7
Kd (Omalizumab IgG): 0.608 nM
koff (Omalizumab IgG): 0.0049 s⁻¹
kon (Omalizumab IgG): 7.7e+06 M⁻¹ s⁻¹
